Results on two molecules are retold here after US20240262915A1 (NANJING SANHOME PHARMACEUTICAL, published 2024).

The target of test [1] is T1, TIGIT-his (extracellular region of human TIGIT protein fused with his) (human, UniProt Q495A1 22-141).
T1 construct: also called antigen TIGIT-his
T1 sequence: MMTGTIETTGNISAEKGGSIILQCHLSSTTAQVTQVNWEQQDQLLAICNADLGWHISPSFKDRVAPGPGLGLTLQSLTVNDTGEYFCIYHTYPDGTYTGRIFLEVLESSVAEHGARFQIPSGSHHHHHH
Put plainly: BLI, Fortebio Octet RED96, antibody on AHC sensor, TIGIT-his in solution. For orientation: BLI is a label-free optical method that tracks binding on a fibre tip over time.

A further test deals with T2, PD-L1-his (human, UniProt Q9NZQ7 19-238, limits assumed).
T2 construct: also called human PD-L1 protein
T2 sequence (Q9NZQ7 19-238 limits assumed): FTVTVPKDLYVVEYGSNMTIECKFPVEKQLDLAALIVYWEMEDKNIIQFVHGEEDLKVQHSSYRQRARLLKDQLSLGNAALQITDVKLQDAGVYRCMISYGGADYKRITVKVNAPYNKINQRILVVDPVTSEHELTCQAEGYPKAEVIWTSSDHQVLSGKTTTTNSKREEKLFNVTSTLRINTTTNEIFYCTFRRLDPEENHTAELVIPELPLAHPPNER
Put plainly: BLI, Fortebio Octet RED96, antibody on AHC sensor, PD-L1-his in solution.

The target of test [2] is T3, human PD-L1 on hPD-L1-CHO-K1 cells (human, UniProt Q9NZQ7 19-290).
T3 construct: whole, on cells; The making of this cell line is not described
T3 sequence (Q9NZQ7 19-290): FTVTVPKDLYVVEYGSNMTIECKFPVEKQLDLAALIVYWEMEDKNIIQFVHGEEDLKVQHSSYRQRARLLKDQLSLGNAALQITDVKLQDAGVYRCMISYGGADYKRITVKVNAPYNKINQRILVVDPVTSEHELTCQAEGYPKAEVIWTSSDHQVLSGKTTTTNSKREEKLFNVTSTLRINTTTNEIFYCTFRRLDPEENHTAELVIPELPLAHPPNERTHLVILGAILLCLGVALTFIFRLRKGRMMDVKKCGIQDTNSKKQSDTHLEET
Put plainly: FACS on hPD-L1-CHO-K1 cells.

The target of test [3] is T4, TIGIT-mFc (extracellular region of human TIGIT with mIgG1-Fc tag) (human).
T4 construct: A bought TIGIT-mFc (Acro Biosystems TIT-H5253) is used for immunization; also called recombinant humanized TIGIT-mFc
T4 chain: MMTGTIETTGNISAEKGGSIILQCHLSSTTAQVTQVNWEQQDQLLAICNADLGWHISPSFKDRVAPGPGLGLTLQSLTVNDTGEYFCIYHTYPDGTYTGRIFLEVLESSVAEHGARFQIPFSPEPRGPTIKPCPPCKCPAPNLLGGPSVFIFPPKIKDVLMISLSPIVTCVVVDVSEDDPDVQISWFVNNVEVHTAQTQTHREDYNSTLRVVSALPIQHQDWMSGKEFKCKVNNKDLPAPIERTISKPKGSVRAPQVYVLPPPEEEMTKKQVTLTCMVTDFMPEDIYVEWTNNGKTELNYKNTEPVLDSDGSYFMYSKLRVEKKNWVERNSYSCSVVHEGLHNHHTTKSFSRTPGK
Put plainly: FACS, blocking of TIGIT-mFc binding to cells (TIGIT/CD155; cells printed as hTIGIT-CHO-K1). Background: In flow cytometry, cells or beads pass a laser one at a time.

Test [4] has as its target T5, full-length TIGIT on hTIGIT-CHO-K1 cells (human, UniProt Q495A1 22-244).
T5 construct: CHO-K1 cells stably transfected with pTargeT-TIGIT; also called TIGIT on cell surface
T5 sequence: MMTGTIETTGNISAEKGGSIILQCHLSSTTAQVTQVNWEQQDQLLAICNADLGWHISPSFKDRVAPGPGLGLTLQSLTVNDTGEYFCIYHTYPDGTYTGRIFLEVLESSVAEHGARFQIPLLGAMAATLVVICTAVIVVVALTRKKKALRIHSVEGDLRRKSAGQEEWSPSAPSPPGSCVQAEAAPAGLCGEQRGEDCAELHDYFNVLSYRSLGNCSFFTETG
Put plainly: FACS on hTIGIT-CHO-K1 cells.

Test [5] addresses T3, human PD-L1 on hPD-L1-CHO-K1 cells. Put plainly: FACS, blocking of PD-1-mFc binding to hPD-L1-CHO-K1 cells (competitor PD-1-mFc).

B1: HuPL1642-T2353-ScFv (bispecific antibody, human IgG4 S228P, kappa)
heavy: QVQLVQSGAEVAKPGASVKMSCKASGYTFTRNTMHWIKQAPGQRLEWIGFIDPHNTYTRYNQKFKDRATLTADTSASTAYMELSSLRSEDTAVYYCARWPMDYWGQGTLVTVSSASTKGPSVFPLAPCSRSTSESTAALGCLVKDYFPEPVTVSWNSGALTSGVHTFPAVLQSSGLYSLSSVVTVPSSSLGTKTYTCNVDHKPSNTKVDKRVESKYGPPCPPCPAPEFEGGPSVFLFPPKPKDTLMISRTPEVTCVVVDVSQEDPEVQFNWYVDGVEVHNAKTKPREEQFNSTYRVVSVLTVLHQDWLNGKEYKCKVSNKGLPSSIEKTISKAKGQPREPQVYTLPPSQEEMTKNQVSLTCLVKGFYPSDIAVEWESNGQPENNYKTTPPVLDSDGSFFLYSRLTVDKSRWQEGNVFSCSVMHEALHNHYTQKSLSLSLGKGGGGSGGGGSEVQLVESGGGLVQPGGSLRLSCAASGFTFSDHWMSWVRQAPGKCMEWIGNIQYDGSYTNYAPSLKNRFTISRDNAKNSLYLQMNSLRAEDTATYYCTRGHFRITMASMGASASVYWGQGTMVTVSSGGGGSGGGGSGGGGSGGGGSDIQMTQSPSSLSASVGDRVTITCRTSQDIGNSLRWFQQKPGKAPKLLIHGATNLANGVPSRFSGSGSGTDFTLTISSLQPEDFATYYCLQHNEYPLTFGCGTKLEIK
light: DIVMTQSPDSLAVSLGERVTMRCKSSQSLSWSENQNNYLSWYQQKPGQPPKLLIYGASIRESGVPDRFSGSGSGTDFTLTISSVQAEDVGVYYCQHNHGSFLPYTFGQGTKLEIKRTVAAPSVFIFPPSDEQLKSGTASVVCLLNNFYPREAKVQWKVDNALQSGNSQESVTEQDSKDSTYSLSSTLTLSKADYEKHKVYACEVTHQGLSSPVTKSFNRGEC
notes: Symmetrical structure: PL1642-T2353-scFv-HC and HuPL1642-VL2
With B1, in test [1], binding was put at a Kd of 2.74 nM; the koff (usually a measure of how fast the partners let go of each other) worked out at 0.00239 s⁻¹; the kon (in general, a measure of how fast the partners come together) amounted to 872000 M⁻¹ s⁻¹. In the test with PD-L1-his, binding was put at a Kd of 2.08 nM, the koff was 0.000326 s⁻¹ and the kon was determined as 157000 M⁻¹ s⁻¹. For the same molecule, in test [2], the EC50 (as a rule, the concentration that produces a half-maximal response) was 0.955 nM. The IC50 – broadly, the point on the concentration scale where inhibition reaches its midpoint – in test [3] is 1.68 nM.

B2: HuPL721-T2353-ScFab (bispecific antibody, human IgG4 S228P, kappa)
chain 1: DIQMTQSPSSLSASVGDRVTITCRTSQDIGNSLRWFQQKPGKAPKLLIHGATNLANGVPSRFSGSGSGTDFTLTISSLQPEDFATYYCLQHNEYPLTFGCGTKLEIKRTVAAPSVFIFPPSDEQLKSGTASVVCLLNNFYPREAKVQWKVDNALQSGNSQESVTEQDSKDSTYSLSSTLTLSKADYEKHKVYACEVTHQGLSSPVTKSFNRGECGGGGSGGGGSGGGGSGGGGSGGGGSGGGGSGGGGSGGGGSEVQLVESGGGLVQPGGSLRLSCAASGFTFSDHWMSWVRQAPGKCMEWIGNIQYDGSYTNYAPSLKNRFTISRDNAKNSLYLQMNSLRAEDTATYYCTRGHFRITMASMGASASVYWGQGTMVTVSSASTKGPSVFPLAPCSRSTSESTAALGCLVKDYFPEPVTVSWNSGALTSGVHTFPAVLQSSGLYSLSSVVTVPSSSLGTKTYTCNVDHKPSNTKVDKRVESKYGPPCPPCPAPEFLGGPSVFLFPPKPKDTLMISRTPEVTCVVVDVSQEDPEVQFNWYVDGVEVHNAKTKPREEQFNSTYRVVSVLTVLHQDWLNGKEYKCKVSNKGLPSSIEKTISKAKGQPREPQVYTLPPCQEEMTKNQVSLWCLVKGFYPSDIAVEWESNGQPENNYKTTPPVLDSDGSFFLYSRLTVDKSRWQEGNVFSCSVMHEALHNHYTQKSLSLSLGK
chain 2: not shown
notes: each is light chain - GGGGS linker - heavy chain, IgG4
On to B2, for which the Kd (usually the constant that tells how readily two partners part at equilibrium) in test [1] amounted to 3.06 nM; in the test with PD-L1-his it was 1.32 nM. Moreover, the results for the koff (in test [1]; with PD-L1-his) were 0.00333 s⁻¹ and 0.000273 s⁻¹, respectively. In addition, the kon in test [1] was determined as 1.09e+06 M⁻¹ s⁻¹; in the test with PD-L1-his, 207000 M⁻¹ s⁻¹. Also, the results for the EC50 in test [2] and in test [4] were 1.77 nM and 1.3 nM, respectively. For the same molecule, the IC50 in test [3] stood at 4.08 nM; in test [5], 3.19 nM.
